This data set deals with the molecule itself. The experiment in a line: dynamic light scattering + fluorescence microscopy.

B1: Dhh1^48-425 (domain or fragment, yeast, UniProt P39517 48-425, looked up)
chain: FEDFYLKRELLMGIFEAGFEKPSPIQEEAIPVAITGRDILARAKNGTGKTAAFVIPTLEKVKPKLNKIQALIMVPTRELALQTSQVVRTLGKHCGISCMVTTGGTNLRDDILRLNETVHILVGTPGRVLDLASRKVADLSDCSLFIMDEADKMLSRDFKTIIEQILSFLPPTHQSLLFSATFPLTVKEFMVKHLHKPYEINLMEELTLKGITQYYAFVEERQKLHCLNTLFSKLQINQAIIFCNSTNRVELLAKKITDLGYSCYYSHARMKQQERNKVFHEFRQGKVRTLVCSDLLTRGIDIQAVNVVINFDFPKTAETYLHRIGRSGRFGHLGLAINLINWNDRFNLYKIEQELGTEIAAIPATIDKSLYVAENDET
On to B1, for which the binding result was “binds”.
